Reference: US20110129481A1

Assays:
[1] = target: human c-Met/Fc fusion protein (R&D Systems, Inc.) (human) (UniProt P08581); experiment: ELISA, plate-bound c-Met/Fc (2 ug/ml), anti-mouse IgG-HRP
[2] = target: mouse c-Met/Fc fusion protein (R&D Systems, Inc.) (mouse) (UniProt P16056); experiment: as above
UniProt P16056, sequence (P16056 25-931 limits assumed): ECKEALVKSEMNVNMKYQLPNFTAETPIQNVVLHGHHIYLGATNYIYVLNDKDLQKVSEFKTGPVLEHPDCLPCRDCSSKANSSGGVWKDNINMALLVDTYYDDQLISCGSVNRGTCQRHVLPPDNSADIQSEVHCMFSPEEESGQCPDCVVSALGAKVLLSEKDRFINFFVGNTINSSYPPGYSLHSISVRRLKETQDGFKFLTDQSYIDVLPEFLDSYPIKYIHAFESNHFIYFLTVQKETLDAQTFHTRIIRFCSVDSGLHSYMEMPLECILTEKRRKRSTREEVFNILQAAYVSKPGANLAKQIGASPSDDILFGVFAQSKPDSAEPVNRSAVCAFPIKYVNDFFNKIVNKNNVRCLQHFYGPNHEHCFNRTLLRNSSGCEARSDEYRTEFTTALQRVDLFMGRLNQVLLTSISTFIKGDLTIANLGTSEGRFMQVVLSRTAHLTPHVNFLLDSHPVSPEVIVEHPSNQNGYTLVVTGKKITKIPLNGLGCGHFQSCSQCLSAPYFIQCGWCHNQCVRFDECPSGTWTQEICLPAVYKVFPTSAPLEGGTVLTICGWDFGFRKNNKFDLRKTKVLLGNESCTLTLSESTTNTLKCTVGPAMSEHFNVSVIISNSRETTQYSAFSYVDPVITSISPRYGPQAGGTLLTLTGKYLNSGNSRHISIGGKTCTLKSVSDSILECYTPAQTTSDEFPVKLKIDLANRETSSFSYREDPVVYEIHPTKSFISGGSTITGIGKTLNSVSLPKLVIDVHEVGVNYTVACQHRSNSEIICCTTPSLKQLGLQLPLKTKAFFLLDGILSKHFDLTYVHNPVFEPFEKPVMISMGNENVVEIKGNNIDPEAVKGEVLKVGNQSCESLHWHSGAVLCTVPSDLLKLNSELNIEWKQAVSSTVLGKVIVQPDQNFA

UniProt P08581, sequence (P08581 25-932 limits assumed): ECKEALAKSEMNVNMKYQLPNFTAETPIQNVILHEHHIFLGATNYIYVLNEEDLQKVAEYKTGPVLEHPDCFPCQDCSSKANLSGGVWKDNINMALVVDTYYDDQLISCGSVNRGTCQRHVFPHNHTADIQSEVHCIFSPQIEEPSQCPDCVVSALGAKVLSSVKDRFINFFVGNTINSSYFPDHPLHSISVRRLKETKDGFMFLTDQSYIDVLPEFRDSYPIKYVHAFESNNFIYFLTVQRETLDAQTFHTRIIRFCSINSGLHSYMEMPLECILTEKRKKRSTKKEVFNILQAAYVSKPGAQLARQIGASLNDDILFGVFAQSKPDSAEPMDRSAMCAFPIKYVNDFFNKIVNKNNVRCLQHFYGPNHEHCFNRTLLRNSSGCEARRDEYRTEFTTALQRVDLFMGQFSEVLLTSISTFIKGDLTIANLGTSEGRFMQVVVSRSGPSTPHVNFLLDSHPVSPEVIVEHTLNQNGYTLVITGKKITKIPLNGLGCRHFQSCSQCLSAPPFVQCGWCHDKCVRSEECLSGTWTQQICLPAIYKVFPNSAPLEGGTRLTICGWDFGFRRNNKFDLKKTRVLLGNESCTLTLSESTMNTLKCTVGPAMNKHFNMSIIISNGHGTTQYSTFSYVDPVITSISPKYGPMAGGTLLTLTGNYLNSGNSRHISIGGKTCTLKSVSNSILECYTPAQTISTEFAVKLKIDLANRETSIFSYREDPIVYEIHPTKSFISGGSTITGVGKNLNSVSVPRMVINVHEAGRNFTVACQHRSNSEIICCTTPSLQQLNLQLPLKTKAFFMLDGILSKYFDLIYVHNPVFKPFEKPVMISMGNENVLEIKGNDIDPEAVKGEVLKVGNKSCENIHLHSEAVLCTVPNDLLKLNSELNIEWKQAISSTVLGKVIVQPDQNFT

absorption at 450 nm [1]: 0.373
absorption at 450 nm [2]: 0.113
Substance: monoclonal antibody against human c-Met, 5D5 (Genetech)
